Measured values from the supplement of paper PMC9732359.
± gives the uncertainty stated by the source.

Assay: protein stability index of a GFP-peptide fusion (yeast GPS) (PSI 1-4); higher = more stable; sorted into four equal gates, so the index is relative within each strain
Summary of the method: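 Mid-log yeast cultures in leucine-free medium, carrying a pooled plasmid library, were sorted into four equal gates by their GFP/Cherry fluorescence ratio. Each plasmid expressed Cherry along with GFP fused upstream of a tiled 17-residue yeast protein peptide. Plasmids recovered from each gate were PCR-amplified and Illumina-sequenced, with reads assigned to strains by barcodes. The protein stability index was obtained by summing each gate's read frequency weighted by its gate number.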

Sequence | protein stability index (doa10∆) | protein stability index (pdr5∆) | protein stability index (san1∆) | protein stability index (ubr1∆)
TRNSNNLAIVELVRLLI [BRR2] | 2.56 ± 0.06 | 2.29 ± 0.049 | 2.53 ± 0.066 | 2.4 ± 0.049
PQTTQMFQSQSQLQPQP [YDL088C/ASM4] | 2.7 ± 0.052 | 2.5 ± 0.039 | 2.65 ± 0.046 | 2.46 ± 0.03
AQDSLTVTIASSLNLED [RPB8] | 1.65 ± 0.048 | 1.92 ± 0.044 | 2.23 ± 0.079 | 1.89 ± 0.045
LGVASFHGTSTKANDKN [FAS2] | 3.09 ± 0.079 | 2.95 ± 0.092 | 3.11 ± 0.075 | 3.02 ± 0.069
GGEKTVAALALLFAINS [SMC1] | 1.2 ± 0.078 | 1.27 ± 0.092 | 1.12 ± 0.23 | 1.9 ± 0.14
FQNSKSASLFKQRKNPR [RPL24A] | 2.11 ± 0.097 | 2.44 ± 0.077 | 2.49 ± 0.1 | 1.85 ± 0.053
PAGFTHKLSNWLFGWND [YDL088C/ASM4] | 2.86 ± 0.073 | 3.07 ± 0.067 | 3.33 ± 0.053 | 2.96 ± 0.043
FSKKGNEPLSEIEIEGV [YAR002W/NUP60] | 2.72 ± 0.11 | 3.17 ± 0.14 | 3.04 ± 0.08 | 3.15 ± 0.1
FPVDPTTPVKLGPGIYC [RRP40] | 2.41 ± 0.058 | 2.48 ± 0.056 | 2.4 ± 0.052 | 2.2 ± 0.047
SFGNREEFINKLVKSMN [RPL7A] | 2.52 ± 0.11 | 2.6 ± 0.11 | 2.29 ± 0.18 | 2.76 ± 0.071
VAKLANWFLEVYASGNP [YML031W/NDC1] | 2.1 ± 0.069 | 2.09 ± 0.049 | 1.89 ± 0.12 | 1.12 ± 0.055
VKHSPGAIKPFTPKLIY [ECM29] | 3.16 ± 0.089 |  | 2.87 ± 0.19 | 2.93 ± 0.1
PLGVILTFVSVDEELGP [SCL1] | 1.72 ± 0.039 | 1.9 ± 0.037 | 2.67 ± 0.052 | 2.46 ± 0.04
QDSIDISIKDNKLVMKS [GAL11] | 2.5 ± 0.064 | 2.77 ± 0.058 | 3.21 ± 0.053 | 2.05 ± 0.068
SWSNGKITSPIRSVALN [RRP42] | 2.62 ± 0.11 | 2.62 ± 0.089 | 2.66 ± 0.091 | 2.81 ± 0.073
VVFAVEKLITSKLLVPQ [PRE10] | 2.03 ± 0.14 | 2.81 ± 0.18 | 2.33 ± 0.13 | 2.66 ± 0.05
VNIVEKDGAKFIEVRNF [RPL9A] | 3.38 ± 0.19 |  | 3.02 ± 0.2 | 1.71 ± 0.24
CTLTADGAYALSASWDK [ASC1] | 3.08 ± 0.051 | 3.25 ± 0.051 | 3.19 ± 0.075 | 3.19 ± 0.038
VKTKTIELIDYDKLPAG [RET1] | 2.98 ± 0.12 | 3.42 ± 0.13 | 2.67 ± 0.19 | 2.95 ± 0.082
DVSPLRRVNQAIALLTI [RPS5] | 2.07 ± 0.065 | 2.05 ± 0.077 | 1.85 ± 0.15 | 1.47 ± 0.055
AIMKPYYLWTGKQVFSL [RPO31] | 2.71 ± 0.13 | 2.91 ± 0.11 | 2.83 ± 0.085 | 2.72 ± 0.061
ISSPIVANSPNKRLDVI [YDL088C/ASM4] | 2.71 ± 0.23 | 2.88 ± 0.14 |  | 2.85 ± 0.13
HAKFSPVSTASYRLLPQ [RPC40] | 1.71 ± 0.076 | 1.75 ± 0.055 | 1.84 ± 0.089 | 2.23 ± 0.077
QPKLNPMASSSSFGSES [SWI1] | 2.85 ± 0.064 | 3.28 ± 0.069 | 3.12 ± 0.048 | 2.92 ± 0.057
TGSLMGGNSTQNTSNMN [YGR119C/NUP57] | 3.19 ± 0.076 | 3.24 ± 0.064 | 3.07 ± 0.052 | 3.18 ± 0.048
LHVVITLLREVVFTRLV [CSN12] | 1.26 ± 0.052 | 1.26 ± 0.047 | 1.14 ± 0.14 | 1.37 ± 0.083
EDAKLKTDLELLVERLK [RPN1] | 1.24 ± 0.074 | 1.19 ± 0.049 | 1.29 ± 0.14 | 1.51 ± 0.073

Sequence | protein stability index (doa10∆) | protein stability index (pdr5∆) | protein stability index (san1∆) | protein stability index (ubr1∆)
TTFEYIIKERALLSKVK [SNF2] | 1.58 ± 0.046 | 1.67 ± 0.048 | 1.41 ± 0.071 | 1.37 ± 0.036
ERLAKVNEMNDQLAQEL [NNF1] | 3 ± 0.22 | 3.42 ± 0.17 | 3.28 ± 0.12 | 2.85 ± 0.18
SEYKVAFPHLYNSRPRS [PRP8] | 2.91 ± 0.071 | 2.66 ± 0.072 | 2.85 ± 0.086 | 2.77 ± 0.06
YSENGKHDSLRYRLLSD [RPN1] | 2.5 ± 0.073 | 2.49 ± 0.075 | 2.51 ± 0.1 | 2.49 ± 0.1
EGLCIVAGSKCWAVRAD [RRP45] | 2.38 ± 0.073 | 2.43 ± 0.071 | 2.53 ± 0.079 | 2.57 ± 0.07
RKANREEKLKANKEKKR [RPL24B] | 2.86 ± 0.074 | 1.96 ± 0.065 | 2.12 ± 0.087 | 2.27 ± 0.053
LSLHTGFIENCNGSALV [MTR3] | 2.65 ± 0.066 | 3 ± 0.06 | 2.79 ± 0.058 | 2.74 ± 0.067
RERRIHVTQEDFELAVG [RPT6] | 2.38 ± 0.074 | 2.74 ± 0.06 | 2.08 ± 0.074 | 2.61 ± 0.066
HDEKSDSLNEWIKFDQE [RPN7] | 3.19 ± 0.13 | 3.29 ± 0.22 | 3.27 ± 0.076 | 3.21 ± 0.072
NAGTDIVMEDHGVLQGT [MED1] | 3.11 ± 0.072 | 3.06 ± 0.1 | 3.08 ± 0.085 | 3 ± 0.067
EPDREKIKLLTQATSED [RPC19] | 2.95 ± 0.2 | 3.19 ± 0.11 | 2.73 ± 0.12 | 3.28 ± 0.11
ADVYAKALEGKDLKEIL [RPP1B] | 3.45 ± 0.22 |  | 3.51 ± 0.14 | 3.36 ± 0.2
DPQPFLKHVLQLIFRQQ [SNU114] | 1.38 ± 0.042 | 2.02 ± 0.052 | 2.44 ± 0.064 | 2.51 ± 0.038
GSKIRVMWGKVTRTHGN [RPL33A] | 3.09 ± 0.075 | 2.9 ± 0.076 | 2.76 ± 0.062 | 2.78 ± 0.054
QQAQSFVGKKNTIGSVH [SSN3] | 3.14 ± 0.1 | 3.12 ± 0.12 | 3.1 ± 0.081 | 2.98 ± 0.097
EMGYLIQISKLHYTPIE [RPC82] | 1.51 ± 0.063 | 2.06 ± 0.081 | 1.95 ± 0.13 | 1.47 ± 0.055
DADEKSSNLYETIIEAD [YJR042W/NUP85] | 2.82 ± 0.067 | 2.95 ± 0.061 | 2.88 ± 0.057 | 3.13 ± 0.082
PLNKPLLTEELAKSGST [TAF14] | 2.25 ± 0.068 | 2.24 ± 0.064 | 2.94 ± 0.072 | 2.39 ± 0.054
FLDSQRVWAEYATKRQE [PRP8] | 1.54 ± 0.078 | 2 ± 0.07 | 1.92 ± 0.097 | 2.07 ± 0.083
SKEDYETLKRDRKQSQA [ARP7] | 2.79 ± 0.071 | 2.9 ± 0.098 | 2.57 ± 0.093 | 2.6 ± 0.065
ADVLAMAKVEVNLAAIP [RIP1] | 1.84 ± 0.12 | 1.99 ± 0.13 | 1.82 ± 0.22 | 2.05 ± 0.077
LESDFVTGASQFQRLAP [PRE2] | 2.88 ± 0.094 | 2.97 ± 0.11 | 3.17 ± 0.086 | 2.87 ± 0.067
GISVPFHSTYLMNGVKP [FAS1] | 1.46 ± 0.042 | 1.51 ± 0.04 | 1.27 ± 0.074 | 1.39 ± 0.027
LISNLLFSKNRNEVLES [YCS4] | 1.96 ± 0.062 | 2.68 ± 0.06 | 2.97 ± 0.052 | 2.65 ± 0.056
TVKFKHMDYDGNIVKEF [YMR129W/POM152] | 2.89 ± 0.079 | 2.39 ± 0.043 | 2.67 ± 0.094 | 2.99 ± 0.05
DTADEAKTLIPSLNNKI [RPB4] | 2.95 ± 0.075 | 3.15 ± 0.078 | 3.1 ± 0.063 | 3.1 ± 0.078
